Read-outs that look alike come from different tables or passages of the source.
What was measured:
[1] = tested on: KARS2 (mature mitochondrial lysyl-tRNA synthetase, lacking predicted mitochondrial targeting presequence) (Homo sapiens); settings: CITED apparent Kd, printed as 250+/240; cited from earlier work
[2] = tested on: preKARS2 (precursor of human mitochondrial lysyl-tRNA synthetase) (Homo sapiens), Q15046-2; settings: CITED targeting sequence said to completely abolish RNA binding; cited from earlier work
[3] = tested on: preKARS2 (precursor of human mitochondrial lysyl-tRNA synthetase) (Homo sapiens), Q15046-2; assay: EMSA; settings: apparent Kd, error printed as 300+/250 (likely +/-50); 20 mM Tris-HCl pH 7.5, 150 mM NaCl, 10 mM MgCl2, 30 C
[4] = tested on: preMSK1p (precursor of yeast mitochondrial lysyl-tRNA synthetase) (Saccharomyces cerevisiae); settings: CITED previously evaluated apparent Kd, printed as 280+/260; cited from earlier work

preKARS2 (precursor of human mitochondrial lysyl-tRNA synthetase) (Homo sapiens), Q15046-2, sequence (Q15046 other isoform, or with tags, fused parts or gaps): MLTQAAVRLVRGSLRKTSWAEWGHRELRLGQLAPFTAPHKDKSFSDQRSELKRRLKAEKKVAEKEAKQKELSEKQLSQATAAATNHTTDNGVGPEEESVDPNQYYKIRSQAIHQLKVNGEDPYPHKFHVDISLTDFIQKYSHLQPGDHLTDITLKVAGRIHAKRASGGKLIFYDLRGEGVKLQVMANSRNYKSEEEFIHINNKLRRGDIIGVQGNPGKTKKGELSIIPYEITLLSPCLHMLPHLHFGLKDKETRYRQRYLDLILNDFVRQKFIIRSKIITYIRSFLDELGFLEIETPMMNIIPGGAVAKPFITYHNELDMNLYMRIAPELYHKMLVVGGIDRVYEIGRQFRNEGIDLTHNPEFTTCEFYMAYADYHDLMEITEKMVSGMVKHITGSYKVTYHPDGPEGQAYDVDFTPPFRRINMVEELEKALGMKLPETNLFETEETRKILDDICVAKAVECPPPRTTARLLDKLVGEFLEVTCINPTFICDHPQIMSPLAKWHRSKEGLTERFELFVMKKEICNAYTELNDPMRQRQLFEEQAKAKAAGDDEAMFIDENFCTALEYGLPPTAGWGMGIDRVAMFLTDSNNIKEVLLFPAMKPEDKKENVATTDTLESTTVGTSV

| Substance | Kd [1] | Kd [2] | Kd [3] | Kd [4] |
| --- | --- | --- | --- | --- |
| human cytosolic tRNALys3 | 250 nM | 100000 nM | – | – |
| tRK1 (yeast tRNALys CUU, T7 transcript) | – | – | 300 nM | 280 nM |

— patent US20150361450
